Reference: the supplement of paper PMC9112550, “Optimization of the antimicrobial peptide Bac7 by deep mutational scanning” (BMC Biology, 2022)

Tested on: Escherichia coli TOP10
Test: shrunken log2 fold change of peptide-encoding DNA abundance (4.5 h post-induction vs induction); higher = less antimicrobial activity (less host growth inhibition)
Details: time post-induction: 4.5 h; library: site-saturation at positions 5, 18, 19, 20
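Also: peptides expressed intracellularly from a pBAD plasmid library in pooled LB shake-flask culture, induced with 0.3% L-arabinose, DNA abundance read by NGS, three biological replicates, DESeq2 with apeglm shrinkage.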

Sequence | shrunken log2 fold change
RRIRVRPPRLPRPRPRPRHKPRP | 0.13
RRIRYRPPRLPRPRPRPNNYPRP | -1.22
RRIRGRPPRLPRPRPRPKAMPRP | 0.147
RRIRPRPPRLPRPRPRPSHTPRP | -0.0343
RRIRNRPPRLPRPRPRPHQMPRP | -0.114
RRIRGRPPRLPRPRPRPSFFPRP | 0.202
RRIRERPPRLPRPRPRPHHAPRP | 0.0055
RRIRFRPPRLPRPRPRPDWEPRP | -0.169
RRIRKRPPRLPRPRPRPMHFPRP | 0.0573
RRIRVRPPRLPRPRPRPTKPPRP | 0.172
RRIRPRPPRLPRPRPRPNYIPRP | -0.739
RRIRIRPPRLPRPRPRPPISPRP | -0.391
RRIRMRPPRLPRPRPRPTHLPRP | 0.396
RRIRQRPPRLPRPRPRPDPEPRP | -0.202
RRIRHRPPRLPRPRPRPFYMPRP | -0.292
RRIRMRPPRLPRPRPRPNKGPRP | 0.0758
RRIRNRPPRLPRPRPRPKPGPRP | 0.235
RRIRTRPPRLPRPRPRPVQMPRP | 0.000776
RRIRNRPPRLPRPRPRPAAAPRP | 0.43
RRIRGRPPRLPRPRPRPWIGPRP | 0.0233
RRIRWRPPRLPRPRPRPCDYPRP | -0.0182
RRIRVRPPRLPRPRPRPRERPRP | 0.578
RRIRFRPPRLPRPRPRPSTEPRP | -0.112

Sequence | shrunken log2 fold change
RRIRTRPPRLPRPRPRPFEPPRP | -0.231
RRIRMRPPRLPRPRPRPNMQPRP | 0.0607
RRIRSRPPRLPRPRPRPAKNPRP | 0.157
RRIRVRPPRLPRPRPRPNDDPRP | -0.299
RRIRPRPPRLPRPRPRPVALPRP | 0.0375
RRIRGRPPRLPRPRPRPYCTPRP | -0.0267
RRIRPRPPRLPRPRPRPVEIPRP | 0.26
RRIRGRPPRLPRPRPRPCHYPRP | 0.0219
RRIRGRPPRLPRPRPRPEAVPRP | 2.27
RRIRRRPPRLPRPRPRPRPRPRP | 0.86
RRIRMRPPRLPRPRPRPVWDPRP | -0.136
RRIRDRPPRLPRPRPRPMARPRP | 0.0954
RRIRVRPPRLPRPRPRPSAVPRP | -0.0662
RRIRCRPPRLPRPRPRPQLRPRP | -0.127
RRIRSRPPRLPRPRPRPFQSPRP | -0.167
RRIRDRPPRLPRPRPRPYMCPRP | -0.0331
RRIRGRPPRLPRPRPRPDEHPRP | 1.5
RRIRNRPPRLPRPRPRPIFTPRP | -0.424
RRIRCRPPRLPRPRPRPAEGPRP | 0.14
RRIRWRPPRLPRPRPRPNWIPRP | 0.149
RRIRMRPPRLPRPRPRPNHGPRP | -0.00135
RRIRCRPPRLPRPRPRPRVVPRP | 0.247
RRIRARPPRLPRPRPRPWCKPRP | 0.102

Sequence | shrunken log2 fold change
RRIRARPPRLPRPRPRPAGLPRP | 0.387
RRIRKRPPRLPRPRPRPWFFPRP | -0.043
RRIRDRPPRLPRPRPRPPECPRP | 0.0841
RRIRVRPPRLPRPRPRPIFYPRP | -0.378
RRIRPRPPRLPRPRPRPCSMPRP | -0.564
RRIRSRPPRLPRPRPRPAFIPRP | -0.0885
RRIRYRPPRLPRPRPRPGFGPRP | -0.0613
RRIRARPPRLPRPRPRPASQPRP | 0.445
RRIRKRPPRLPRPRPRPFRCPRP | -0.142
RRIRLRPPRLPRPRPRPGRPPRP | 0.526
RRIRFRPPRLPRPRPRPWHTPRP | -0.0673
RRIRIRPPRLPRPRPRPFRGPRP | -0.0233
RRIRDRPPRLPRPRPRPVPMPRP | 0.115
RRIRNRPPRLPRPRPRPYPMPRP | 0.133
RRIRFRPPRLPRPRPRPGLLPRP | 0.032
RRIRSRPPRLPRPRPRPNTNPRP | -0.0164
RRIRLRPPRLPRPRPRPQCIPRP | -0.0123
RRIRARPPRLPRPRPRPDQHPRP | 0.0116
RRIRDRPPRLPRPRPRPYYYPRP | -1.11
RRIRSRPPRLPRPRPRPCQVPRP | -0.0521
RRIRNRPPRLPRPRPRPWAEPRP | 0.125
RRIRFRPPRLPRPRPRPRRYPRP | -0.0281
RRIRWRPPRLPRPRPRPHTYPRP | -0.578

Sequence | shrunken log2 fold change
RRIRHRPPRLPRPRPRPLVTPRP | 1.93
RRIRNRPPRLPRPRPRPHSKPRP | -0.117
RRIRFRPPRLPRPRPRPVDHPRP | -0.179
RRIRSRPPRLPRPRPRPWMWPRP | -0.0985
RRIRTRPPRLPRPRPRPDFIPRP | -0.547
RRIRVRPPRLPRPRPRPAVRPRP | 0.123
RRIRKRPPRLPRPRPRPSGQPRP | 0.244
RRIRPRPPRLPRPRPRPYNEPRP | -0.458
RRIRIRPPRLPRPRPRPVDLPRP | 0.0939
RRIRVRPPRLPRPRPRPPAGPRP | 0.522
RRIRNRPPRLPRPRPRPSCIPRP | -0.507
RRIRLRPPRLPRPRPRPFPKPRP | -0.103
RRIRFRPPRLPRPRPRPLYPPRP | -0.205
RRIRRRPPRLPRPRPRPMHLPRP | 0.156
RRIRNRPPRLPRPRPRPPKSPRP | 0.338
RRIRHRPPRLPRPRPRPSPPPRP | -0.0717
RRIRERPPRLPRPRPRPWLCPRP | -0.0006
RRIRLRPPRLPRPRPRPNQNPRP | -0.276
RRIRGRPPRLPRPRPRPIFVPRP | 0.42
RRIRSRPPRLPRPRPRPHKIPRP | -0.48
RRIRIRPPRLPRPRPRPKEEPRP | 0.0133
RRIRYRPPRLPRPRPRPKNMPRP | -0.477
